No end group written: not given here. *: point of attachment. FITC = O=C1OC2(c3ccc(O)cc3Oc3cc(O)ccc32)c2ccc(NC(=S)*)cc21

In article PMC7816212 (Nature, 2020) one finds binding result and Kd data, which are given here for two molecules.

One assay deals with biotinylated BCL6^5−129 (human, UniProt A5PL18 5-129, biotin). Briefly: FRET or BRET.
Assay [1] deals with BodipyFL-labeled BCL6^5−360 (human, UniProt A5PL18 5-360, BodipyFL label (site not stated)). Put plainly: FRET or BRET.

With {FITC}-RSEIISTAPSSWVVPGP [N-terminal FITC-labeled BCoR peptide], the binding result with biotinylated BCL6^5−129 is on record as “binds”.

B1: biotinylated Strep II Avi-tagged SIAH1^SBD (domain or fragment)
chain: VANSVLFPCKYASSGCEITLPHTEKADHEELCEFRPYSCPCPGASCKWQGSLDAVMPHLMHQHKSITTLQGEDIVFLATDINLPGAVDWVMMQSCFGFHFMLVLEKQEKYDGHQQFFAIVQLIGTRKQAENFAYRLELNGHRRRLTWEATPRSIHEGIATAIMNSDCLVFDTSIAQLFAENGNLGINVTISMC
modifications: biotin
B1 returned a Kd in assay [1] of 200 nM.
